From US20050064507A1, “Determining kinase specificity” (priority 2003, published 2005)

Experiments:
PKC-epsilon = target: T1, PKC-epsilon (Homo sapiens, UniProt Q02156); experiment: In vitro kinase assay: peptide phosphorylation by PKC-epsilon; type: biochemical; details: for PKC-epsilon phosphorylation: normalized to best substrate; for phosphorylation by PKC epsilon: peptide concentration 1 uM
T1 construct: purchased Calbiochem
T1 sequence (Q02156 1-737): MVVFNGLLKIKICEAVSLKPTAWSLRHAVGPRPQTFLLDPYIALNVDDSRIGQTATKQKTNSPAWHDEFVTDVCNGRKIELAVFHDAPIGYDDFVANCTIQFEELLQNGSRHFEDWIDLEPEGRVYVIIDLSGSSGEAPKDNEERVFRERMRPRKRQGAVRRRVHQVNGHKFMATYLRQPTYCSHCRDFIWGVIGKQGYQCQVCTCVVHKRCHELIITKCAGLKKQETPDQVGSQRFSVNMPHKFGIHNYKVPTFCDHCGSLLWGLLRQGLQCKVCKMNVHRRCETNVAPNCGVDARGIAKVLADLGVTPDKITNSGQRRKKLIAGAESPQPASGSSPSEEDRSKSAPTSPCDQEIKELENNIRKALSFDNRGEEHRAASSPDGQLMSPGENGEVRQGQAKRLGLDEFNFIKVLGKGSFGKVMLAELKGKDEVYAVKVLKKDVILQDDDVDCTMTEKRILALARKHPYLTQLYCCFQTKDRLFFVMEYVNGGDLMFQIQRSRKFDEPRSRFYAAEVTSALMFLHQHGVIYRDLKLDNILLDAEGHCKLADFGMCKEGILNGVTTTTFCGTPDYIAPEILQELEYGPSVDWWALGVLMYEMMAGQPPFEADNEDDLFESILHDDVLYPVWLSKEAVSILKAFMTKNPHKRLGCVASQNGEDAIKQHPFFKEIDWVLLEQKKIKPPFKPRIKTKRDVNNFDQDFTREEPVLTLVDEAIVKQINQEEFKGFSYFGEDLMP
Procedure: Catalytically active preparations of the kinases of interest were either purchased or prepared. Purchased and tested active kinase preparations including the following: PKC-alpha, PKC-delta, PKC-epsilon, PKC-zeta, PKC-mu, PKA, PKG from Calbiochem, ROK alpha/ROCK-II, active from Upstate Biotechnology, and AKT1 from Panvera.
(§1) The conditions of the kinase assay and the amount of active kinase used varied with the kinase and with the accuracy needed. For a typical experiment, 5-20 ng of kinase was used per well and each peptide pool was assayed in duplicate wells. Note that the absolute amount of kinase used was not usually a critical parameter, because the desired information related to specificity of the kinase not its absolute activity, and robustness of the assay depends on comparisons of the same amount of kinase on different peptides. The combination of kinase concentration and assay duration was modified to assure that the stoichiometry of peptide phosphorylation never exceeded 5%. The choice of kinase buffer depended on the kinase being analyzed. For studies of PKC, 100 mM HEPES, 0.05% Triton-X100, 1 mM CaCl2, 20 mM MgCl2, 0.2 mg/ml phosphatidyl serine (Avanti Polar Lipids), PMA 100 ng/ml was typically used. The lipid stock was prepared by transferring 3 mg phosphatidyl serine into iced mixture of 450 μl water plus 50 μl of 10% Triton-X100, sonicating 10 times on ice for 1 sec each.
(§2) The kinase reaction mixture was assembled by sequential addition to a tube held on ice of: 5 μl peptide (100 μM for final concentration of 10 μM), 15 μl of kinase (typically 5 ng/well, in appropriate kinase buffer), 30 μl of ATP (1 uCi/well of ^32P-gamma ATP in a stock of 167 μM cold ATP in the kinase buffer; for final concentration for 100 μM ATP). The mixture was rapidly warmed to desired reaction temperature (30° C. for PKC) and incubated for the desired duration (usually 10 minutes). The kinase assay was terminated by transfer to 4° C. water batch, and rapid addition of an equal volume (50 μl) of stop solution [0.1M ATP+0.1M EDTA in water, pH 8].
(§3) The peptides were then captured from the reaction mixture by transfer to a Reacti-Bind Streptavidin High Binding Capacity Coated Plates (HBC) (Pierce Biotechnology) as follows. The HBC plates were pre-rinsed three times with PBS/Tween PBS/Tween20 0.05% (PBS/Tween). Part of all of the reaction mixture was then transferred wells of a HBC plate pre-filled with 90 μl of phosphate-buffered saline (PBS); typically each aliquots of each phosphorylation reaction were transferred to duplicate HBC plates to assure accuracy by additional replication
For kinase assays done at the standard peptide concentration of 10 μM, the peptide concentration in the reaction mixture becomes 5 μM after addition of the stop solution; consequently 10 μl of the reaction (50 pMoles of peptide) was transferred to the HBC plate. More generally, the amount of reaction mixture transferred was estimated to be about 50 pMoles of peptide. […] The HBC plates were incubated for 0.5 to 1.5 hr at room temperature for complete binding of biotinylated peptides to plate-bound streptavidin. The HBC plates were then washed extensively with PBS/Tween. Five washes were done routinely and additional wash steps were added if the wash solution removed from the plate had measurable radioactivity as detected using a Geiger counter. This step is essential to obtaining a good the signal to noise ratio because the fraction of radioactivity incorporated in the peptides was a tiny fraction of the total in the reaction mixture. The wells were air-dried. A volume of 40-50 μl of microScint-20 (Packard Instruments) was added to each well. The plates were covered with stick-on film sheet. Radioactive emissions were measured in a TopCount NXT Microplate Scintillation and Luminescence Counter (Packard Instruments). Typically samples were counted for 5 minutes (or more) to improve the signal to noise ratio when counts were low. […]

PKC = experiment: In vitro phosphorylation by PKC (average of isoforms alpha, epsilon, delta, theta); type: biochemical; details: for PKC average: average of PKC-alpha, -epsilon, -theta, normalized to best substrate; for average (phosphorylation by PKC-theta, -delta, -epsilon, -alpha): average over PKC-theta, -epsilon and -alpha at 10 and 1 uM peptide, relative to best substrate
Procedure: as §1, §2, §3
For kinase assays done at the standard peptide concentration of 10 μM, the peptide concentration in the reaction mixture becomes 5 μM after addition of the stop solution; consequently 10 μl of the reaction (50 pMoles of peptide) was transferred to the HBC plate. More generally, the amount of reaction mixture transferred was estimated to be about 50 pMoles of peptide. […] The HBC plates were incubated for 0.5 to 1.5 hr at room temperature for complete binding of biotinylated peptides to plate-bound streptavidin. The HBC plates were then washed extensively with PBS/Tween. Five washes were done routinely and additional wash steps were added if the wash solution removed from the plate had measurable radioactivity as detected using a Geiger counter. This step is essential to obtaining a good the signal to noise ratio because the fraction of radioactivity incorporated in the peptides was a tiny fraction of the total in the reaction mixture. The wells were air-dried. A volume of 40-50 μl of microScint-20 (Packard Instruments) was added to each well. The plates were covered with stick-on film sheet. Radioactive emissions were measured in a TopCount NXT Microplate Scintillation and Luminescence Counter (Packard Instruments). Typically samples were counted for 5 minutes (or more) to improve the signal to noise ratio when counts were low.
Many peptides that are good substrates for PKC enzymes were identified using the methods of the invention. For example, Tables 4 and 5 provide a listing of peptides identified as potentially useful kinase substrates. […]

Substance	PKC-epsilon phosphorylation (PKC-epsilon)	PKC average (PKC)	phosphorylation by PKC epsilon (PKC-epsilon)	average (phosphorylation by PKC-theta, -delta, -epsilon, -alpha) (PKC)
76 (HVRRRRGTFKRSKLRARD) [compound 76]	100%	91%	–	–
77 (KKKKRASFKRKSSKKG) [compound 77]	71%	80%	–	–
78 (KFARKSTRRSIRLPE) [compound 78]	84%	63%	–	–
79 (NRKKKRTSFKRKA) [compound 79]	92%	60%	–	–
80 (KKKKKRFSFKKSFKL) [compound 80]	71%	56%	–	–
82 (PRLIRRGSKKRPAR) [compound 82]	72%	56%	–	–
83 (RKIPKRPGSVHRTPSRQ) [compound 83]	47%	55%	–	–
84 (QKKSRLRRRASQLKI) [compound 84]	52%	53%	–	–
85 (RFARKGSLRQKNV) [compound 85]	86%	52%	–	–
86 (RQRKRKLSFRRRTDKD) [compound 86]	63%	48%	–	–
89 (EYLERRASRRRAV) [compound 89]	45%	41%	–	–
90 (AQIVKRASLKRGKQ) [compound 90]	49%	40%	–	–
92 (DGQKRKKSLRKKLD) [compound 92]	51%	38%	–	–
93 (AARKKRISVKKKQEQ) [compound 93]	40%	37%	–	–
94 (KLAVGRHSFSRRSGV) [compound 94]	13%	36%	–	–
95 (KKKFRTPSFLKKSKK) [compound 95]	31%	33%	–	–
96 (RGFLRSASLGRRASFHLE) [compound 96]	41%	33%	–	–
99 (AGWRKKTSFRKPKED) [compound 99]	27%	27%	–	–
100 (WKGKRRSKARKKRK) [compound 100]	13%	26%	–	–
101 (GAPPRRSSIRNAH) [compound 101]	19%	23%	–	–
102 (AGSFKRNSIKKIV) [compound 102]	14%	23%	–	–
103 (LLKKRDSFRTPRDSKLE) [compound 103]	21%	22%	–	–

Substance	PKC-epsilon phosphorylation (PKC-epsilon)	PKC average (PKC)	phosphorylation by PKC epsilon (PKC-epsilon)	average (phosphorylation by PKC-theta, -delta, -epsilon, -alpha) (PKC)
104 (EKIKRSSLKKVDSLKK) [compound 104]	17%	22%	–	–
105 (ALRRPSLRREADD) [compound 105]	29%	21%	–	–
106 (EILSRRPSYRKILND) [compound 106]	31%	21%	–	–
107 (QKRHARVTVKYDRRE) [compound 107]	7%	19%	–	–
108 (KATTKKRTLRKNDRK) [compound 108]	8%	16%	–	–
109 (KEVVRTDSLKGRRGR) [compound 109]	26%	16%	–	–
110 (EGGDRRASGRRK) [compound 110]	4%	15%	–	–
111 (KKKRFSFKKSFKLSGFSFKK) [compound 111]	12%	14%	–	–
112 (KRPGKKGSNKRPGKR) [compound 112]	11%	12%	–	–
113 (GENVLKKSMKSRVKG) [compound 113]	10%	10%	–	–
114 (KKKKRASFKRKSSKKG) [compound 114]	–	–	100	95
115 (NRKKKRTSFKRKA) [compound 115]	–	–	91	80
116 (EEGTFRSSIRRLSTRRR) [compound 116]	–	–	92	71
117 (NRKKKRTSFKRKA) [compound 117]	–	–	67	70
118 (RPQNTLKASKKKKRASFKRK) [compound 118]	–	–	89	64
119 (KKRFSFKKSFKLSGFSFKKN) [compound 119]	–	–	81	61
120 (AKRRRLSSLRASTSK) [compound 120]	–	–	56	52
121 (LRRRSLRRSNSISKSPGP) [compound 121]	–	–	49	50
122 (RAITSTLASSFKRRR) [compound 122]	–	–	72	49
123 (KKRFSFKKSFKLSGFSFKKN) [compound 123]	–	–	67	49
124 (PRLIRRGSKKRPAR) [compound 124]	–	–	49	49
125 (PLKEKKRERKTSSKSSVRKR) [compound 125]	–	–	48	48
